From patent US20220057408A1 come the findings set out here.

This assay addresses CD3 (Homo sapiens (Human)) (UniProt P07766). The assay can be described thus: IHC on tissue (human tonsil), 1ug/mL primary antibody, detected with Goat Anti-rabbit-HRP/DAB; 6 ROIs, 3 tissues, 95% CI for the mean; P=0.000 against H4K4-E.

Turning to “rabbit anti-CD3(SP162) antibody (unmodified)”, the Staining Intensity by ImageJ (mean) was 62.
